Data published in patent US20180371095A1.

Molecular target: recombinant human VSIG4 (rhVSIG4), construct not stated (human) (UniProt Q9Y279)
Experiment: ELISA, soluble rhVSIG4 coated, streptavidin-HRP detection, background corrected

“biotinylated rhSIGLEC-7 (from UniProt Q9Y286 19-357) (ligand)” showed an absorbance at 452 nm of 2.3 absorbance.
